The text below walks through data of the RNAGym collection of RNA variant scans (doi:10.7554/elife.80360).

First the molecules themselves.
B1: Twister Ribozyme (parent)
chain: AACACUGCCAAUGCCGGUCCCAAGCCCGGAUAAAAGUGGAGGGGGCGG

In the data set the parent is B1. The data set is described as follows: self-cleavage, relative activity (ratio to wild type); higher = more cleavage; co-transcriptional.
AACACUGCCAAUGCCGGUACCAAGCCCGGAUAAAAGUGUAGGGGGCGG [C19A G39U]: the self-cleavage amounted to 0.124.
As for AACAUUGCCAAUGCCGGUCCCAAGCCCGGAUAAAUGUGGAGGGGGCGG [C5U A35U], the self-cleavage amounted to 0.91.
In the case of AACACUGCCAAGGCCGGUCCCAAGCCCGGAUAAAAGUGGAGCGGGCGG [U12G G42C] it was 0.369; in that of AACACUGCCAAUGCCGGUCCCUAGCCCGGAUAUAAGUGGAGGGGGCGG [A22U A33U], 0.698; in that of CACACUGCCAAUGCCGGGCCCAAGCCCGGAUAAAAGUGGAGGGGGCGG [A1C U18G], 0.136.
For the variant AACACUGCCAAUGCCGGUCCCAUGCCCGGAUAAAAGUGGAGGGGGCCG [A23U G47C], the self-cleavage came to 0.213.
The same measure for AACACUGCCAAUGCCGGUCCCAAGGCCGGAUAAAUGUGGAGGGGGCGG [C25G A35U]: 0.299; for AACACUGCCAAGGCCGGUCCCAAGCCCGGAUAAAAAUGGAGGGGGCGG [U12G G36A]: 0.64.
AACACUGCCAAUGCCGGUCCUAAGCCCGGAUAAAAGUGGAGGGGGGGG [C21U C46G]: the self-cleavage came out at 0.135.
The same measure for AACACUGCCAAUGCCGGUCGCAAGCCCGGAUAAAAGUGUAGGGGGCGG [C20G G39U]: 0.0983; for AACACUGCCAAUGCCGGUCGCAAGCCCGGAUAAAAGUGGAGGGGGCAG [C20G G47A]: 0.111; for AACACUGCCAAUGCCGGUGGCAAGCCCGGAUAAAAGUGGAGGGGGCGG [C19G C20G]: 0.0478.
The same measure for ACCACUGCCGAUGCCGGUCCCAAGCCCGGAUAAAAGUGGAGGGGGCGG [A2C A10G]: 0.151; for AACACUGCCAAUGCCGGUCUCAAGCCCGGAUAAAAGUGGAGGGGGCAG [C20U G47A]: 0.859; for AACACUGCCAAUGCCGGUUCCAAGACCGGAUAAAAGUGGAGGGGGCGG [C19U C25A]: 0.113.
Take AACACUGCCAAUGCCCGUCCCAAGCCCGUAUAAAAGUGGAGGGGGCGG [G16C G29U]: the self-cleavage turned out to be 0.194.
The same measure for AGCCCUGCCAAUGCCGGUCCCAAGCCCGGAUAAAAGUGGAGGGGGCGG [A2G A4C]: 0.0432; for AACACUGCCAAUGCCGGUCCCAAGCCCGGAUAAAAGUGGAGUGUGCGG [G42U G44U]: 0.196; for AACACUGCCCAUGCCGGUCCCAAGCCCGGAUAAAAGUGGAGGGGGCGC [A10C G48C]: 1.03.
In the case of AACACUGCCAAUGCCGGUACCAAGCCCGGAUAAAAGUGGAGGGUGCGG [C19A G44U], the self-cleavage worked out at 0.679.
Consider AACACUUCCAAUGCCGGUCCCAAGCCCGGAUAAAAGUGGAGGGUGCGG [G7U G44U], for which the self-cleavage was determined as 0.0819.
On to AACACAGCCAAUGCCGGUCCCAAGCCCGGAUAAAAGUGGAGGAGGCGG [U6A G43A], for which the self-cleavage is 0.223.
AACACUGCAAAUGCCGGUCCCAAGCCCGGAUAAAAGUGGAAGGGGCGG [C9A G41A]: the self-cleavage worked out at 0.145.
Turning to AACACUGCCAAUGCCGGUCCCAUGCCCGGAUAAAAGUGGACGGGGCGG [A23U G41C], the self-cleavage was 0.0988.
In the case of AACCCUGCCAAUGCCGGUCCCAAGCCCGGAUAAAAGUGGGGGGGGCGG [A4C A40G] it was 0.0825; in that of AACAAUGCCAAUGCCGGUCCCAAGGCCGGAUAAAAGUGGAGGGGGCGG [C5A C25G], 0.0605.
Regarding AACACUGCCAAUGCCGGUCCCAAGCCCGAAUAAAAGUGGAGGGGUCGG [G29A G45U], the self-cleavage came to 0.578.
The same measure for AACACUGCCAAUGCCUGUCCCGAGCCCGGAUAAAAGUGGAGGGGGCGG [G16U A22G]: 0.21; for AACACUGCCAAUGCCGGUCCCAAGACCGGAUAAAAGUGGAGGGGGCUG [C25A G47U]: 0.0657.
In the case of AACACUGCCAAUGCCGGUCCCAAGCCCCGAUAAAAGUGGAGGCGGCGG [G28C G43C] it was 0.149; in that of AAGACUGCCAAUGCCGCUCCCAAGCCCGGAUAAAAGUGGAGGGGGCGG [C3G G17C], 0.0532; in that of AACACUGCCAAUGCCGGACCCAAGCCCGGAUAAAAAUGGAGGGGGCGG [U18A G36A], 0.111.
Regarding AACACUGCCAAUGCCGGCCCCCAGCCCGGAUAAAAGUGGAGGGGGCGG [U18C A22C], the self-cleavage worked out at 0.397.
The same measure for AACACUGCCAAUGCCGGUCCCAAGCCCGGAUAAAAGUUGAGGGGCCGG [G38U G45C]: 0.407; for AACACUGCCAAUGCCGGUCCCCAGGCCGGAUAAAAGUGGAGGGGGCGG [A22C C25G]: 0.222.
The same measure for AACAAUUCCAAUGCCGGUCCCAAGCCCGGAUAAAAGUGGAGGGGGCGG [C5A G7U]: 0.0804.
The same measure for AACACACCCAAUGCCGGUCCCAAGCCCGGAUAAAAGUGGAGGGGGCGG [U6A G7C]: 0.234; for AACACUGCCAAUGCCGGUCCCCAGCCCGCAUAAAAGUGGAGGGGGCGG [A22C G29C]: 0.929.
Regarding AACACUGCCAAUGACGGUCCCAAGCCCGGAUAAAAGUGGAUGGGGCGG [C14A G41U], the self-cleavage amounted to 0.55.
The same measure for AACACUGCCAAUGCCGGUUCCAAGCCCGGAUAAAAGUGGAGGGGGAGG [C19U C46A]: 0.853.
The same measure for AACACUGCCAAUGCCGGUCCCAAGCCCGGAUACAAGUGGAGGGGGCUG [A33C G47U]: 0.865; for AACACUGCCAAUGCCGGUCCCAAGCCCGGAUAAAAGUGGAGGGGGAGU [C46A G48U]: 0.889.
In the case of AACAGUGCCAGUGCCGGUCCCAAGCCCGGAUAAAAGUGGAGGGGGCGG [C5G A11G] it was 0.696; in that of AAGACUGGCAAUGCCGGUCCCAAGCCCGGAUAAAAGUGGAGGGGGCGG [C3G C8G], 0.153; in that of AACACUGCCAAUUCUGGUCCCAAGCCCGGAUAAAAGUGGAGGGGGCGG [G13U C15U], 0.317.
With AACACUGCCAAUACCGGUCCCAUGCCCGGAUAAAAGUGGAGGGGGCGG [G13A A23U], the self-cleavage was determined as 0.0933.
The same measure for AACACUGCCAAUGCCGGUCCCAAGCCAGGAUAAAACUGGAGGGGGCGG [C27A G36C]: 0.123.
As for AACACUGCCAAUGCCGGUCCCAAGCCCGGAUGAAAGUGGAGGAGGCGG [A32G G43A], the self-cleavage stood at 0.284.
In the case of AACACUGCCAAUGCCGGUCGCAAGGCCGGAUAAAAGUGGAGGGGGCGG [C20G C25G] it was 0.0818.
The same measure for AACACUGCCCAUGCCGGUCCGAAGCCCGGAUAAAAGUGGAGGGGGCGG [A10C C21G]: 0.0689; for AACACUGCCAAUGCCGGUCCCAAGCCCGGAUAAAAGCCGAGGGGGCGG [U37C G38C]: 0.742; for AACGCUGCCAAUGCCGGUCCCAAGCCCGGAUAAAAGUGGAGGGGGCCG [A4G G47C]: 0.386.
In the case of AACAGUGCCAAUGCCGGUCCCAAGCCCGGACAAAAGUGGAGGGGGCGG [C5G U31C] it was 0.584; in that of AACCCUGCCAAUGCCGCUCCCAAGCCCGGAUAAAAGUGGAGGGGGCGG [A4C G17C], 0.0696.
